Results on four molecules are retold here after patent US20220089722A1 (NANTONG YICHEN BIOPHARMA, published 2022).

For assay [1], the target named is T1, EGFR on F98-EGFR cells (UniProt P00533 25-1210, limits assumed). In words: cell-based or functional assay.
Assay [2] deals with T2, CD3 on T cells (Jurkat T cells; PBMC-T cells).
T2 construct: whole, on cells; the target is inferred from the anti-CD3 arm of the constructs
In words: flow cytometry on Jurkat T cells; protein purified on CH1 resin.

In assay [3] the target is T1, EGFR on F98-EGFR cells. In words: flow cytometry on F98-EGFR cells; protein purified on Protein A resin.
Assay [4] addresses T1, EGFR on F98-EGFR cells. In words: flow cytometry on F98-EGFR cells; protein purified on CH1 resin.
Assay [5] addresses T2, CD3 on T cells (Jurkat T cells; PBMC-T …). Nature of the assay: flow cytometry on Jurkat T cells; protein purified on Protein A resin.
Assay [6] concerns the target T1, EGFR on F98-EGFR cells. In words: flow cytometry on F98-EGFR cells. The procedure:
F98-EGFR cells (a DMEM containing 10% FBS, 200 μg/ml G418) were cultured. 2×10⁵ cells were washed by precooled PBS for 3 times, and blocked by 2% FBS (soluble to PBS). IgFD-8, IgFD-9, IgFD-10, IgFD-11, IgFD-18, IgFD-19, IgFD-25, IgFD-26 or IgFD-31 (aEGFR expressed in a laboratory as a control) was added and incubated for 2 h at 4° C. (cells were gently mixed during incubation), unbounded antibodies were washed by 2% FBS (soluble to PBS), and then the remaining cells were incubated by FITC anti-human IgGFc(KPL, Inc., MD) for 1 h at 4° C., and washed by 2% FBS (soluble to PBS) for flow cytometry analysis. As shown in FIG. 7 and Table 4, the anti-CD3/anti-EGFR heterodimers in different forms of fusion could bind to EGFR on F98-EGFR cells, and there was no significant difference in the binding capacity of different heterodimers to F98-EGFR.

T2 sequence (P07766 23-207): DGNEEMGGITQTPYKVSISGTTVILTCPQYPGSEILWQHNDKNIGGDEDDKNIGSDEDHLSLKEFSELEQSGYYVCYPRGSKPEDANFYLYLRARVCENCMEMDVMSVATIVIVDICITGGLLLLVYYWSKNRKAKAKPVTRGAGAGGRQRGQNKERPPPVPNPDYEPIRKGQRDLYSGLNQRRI

B1: IgFD-28(anti-CD3/EGFR) (bispecific antibody, human IgG1, kappa)
chain 1: EVQLVESGGGLVQPGGSLRLSCAASGFTFNTYAMNWVRQAPGKGLEWVARIRSKYNNYATYYADSVKDRFTISRDDSKNTLYLQMNSLRAEDTAVYYCVRHGNFGNSYVSWFAYWGQGTLVTVSSASTKGPSVFPLAPSSKSTSGGTAALGCLVKDYFPEPVTVSWNSGALTSGVHTFPAVLQSSGLYSLSSVVTVPSSSLGTQTYICNVNHKPSNTKVDKKVEPKSCDKTHTCPPCPAPPVAGPSVFLFPPKPKDTLMISRTPEVTCVVVDVSHEDPEVKFNWYVDGVEVHNAKTKPREEQYNSTYRVVSVLTVLHQDWLNGKEYKCKVSNKGLPSSIEKTISKAKGQPREPQVYTLPPCRDELTKNQVSLWCLVKGFYPSDIAVEWESNGQPENNYKTTPPVLDSDGSFFLYSKLTVDKSRWQQGNVFSCSVMHEALHNHYTQKSLSLSPGK
chain 2: QAVVTQEPSLTVSPGGTVTLTCRSSTGAVTTSNYANWVQQKPDHLFRGLIGGTNKRAPGTPARFSGSLLGDKAALTISGAQPEDEAEYYCALWYSNLWVFGGGTKLEIKRTVAAPSVFIFPPSDEQLKSGTASVVCLLNNFYPREAKVQWKVDNALQSGNSQESVTEQDSKDSTYSLSSTLTLSKADYEKHKVYACEVTHQGLSSPVTKSFNRGECDKTHTCPPCPAPPVAGPSVFLFPPKPKDTLMISRTPEVTCVVVDVSHEDPEVKFNWYVDGVEVHNAKTKPREEQYNSTYRVVSVLTVLHQDWLNGKEYKCKVSNKGLPSSIEKTISKAKGQPREPQVCTLPPSRDELTKNQVSLSCAVKGFYPSDIAVEWESNGQPENNYKTTPPVLDSDGSFFLVSKLTVDKSRWQQGNVFSCSVMHEALHNHYTQKSLSLSPGKGGSGGSGGGGSGGGGSDIQMTQSPSSLSASVGDRVTITCQASQDISNYLNWYQQKPGKAPKLLIYDASNLETGVPSRFSGSGSGTDFTFTISSLQPEDIATYFCQHFDHLPLAFGGGTKVEIKGGGGSGGGGSGGGGSQVQLQESGPGLVKPSETLSLTCTVSGGSVSSGDYYWTWIRQSPGKGLEWIGHIYYSGNTNYNPSLKSRLTISIDTSKTQFSLKLSSVTAADTAIYYCVRDRVTGAFDIWGQGTMVTVSS
notes: also called IgFD-28(ProA); IgFD-28(CH1)
For the molecule B1, the “Promotion for the specific killing effect of PBMCs on target cells by heterodimers (EC50, pM); F98-EGFR cells, LDH assay; IgFD-28(CH1)” value with EGFR on F98-EGFR cells [1] amounted to 11.4 pM. Moreover, the “Promotion for the specific killing effect of PBMCs on target cells by heterodimers (EC50, pM); F98-EGFR cells, LDH assay; IgFD-28(ProA)” value with EGFR on F98-EGFR cells [1] came out at 14.7 pM. In addition, the Kd in assay [2] came out at 10.4 nM; with EGFR on F98-EGFR cells [3] it was 3.81 nM; in the assay with EGFR on F98-EGFR cells [4], 2.86 nM; in assay [5], 12.2 nM.

B2: IgFD-29(anti-CD3/EGFR) (bispecific antibody, human IgG1, kappa)
chain 1: EVQLVESGGGLVQPGGSLRLSCAASGFTFNTYAMNWVRQAPGKGLEWVARIRSKYNNYATYYADSVKDRFTISRDDSKNTLYLQMNSLRAEDTAVYYCVRHGNFGNSYVSWFAYWGQGTLVTVSSASTKGPSVFPLAPSSKSTSGGTAALGCLVKDYFPEPVTVSWNSGALTSGVHTFPAVLQSSGLYSLSSVVTVPSSSLGTQTYICNVNHKPSNTKVDKKVEPKSCDKTHTCPPCPAPPVAGPSVFLFPPKPKDTLMISRTPEVTCVVVDVSHEDPEVKFNWYVDGVEVHNAKTKPREEQYNSTYRVVSVLTVLHQDWLNGKEYKCKVSNKGLPSSIEKTISKAKGQPREPQVYTLPPCRDELTKNQVSLWCLVKGFYPSDIAVEWESNGQPENNYKTTPPVLDSDGSFFLYSKLTVDKSRWQQGNVFSCSVMHEALHNHYTQKSLSLSPGKGGSGGSGGGGSGGGGSQVQLQESGPGLVKPSETLSLTCTVSGGSVSSGDYYWTWIRQSPGKGLEWIGHIYYSGNTNYNPSLKSRLTISIDTSKTQFSLKLSSVTAADTAIYYCVRDRVTGAFDIWGQGTMVTVSS
chain 2: QAVVTQEPSLTVSPGGTVTLTCRSSTGAVTTSNYANWVQQKPDHLFRGLIGGTNKRAPGTPARFSGSLLGDKAALTISGAQPEDEAEYYCALWYSNLWVFGGGTKLTVLKRTVAAPSVFIFPPSDEQLKSGTASVVCLLNNFYPREAKVQWKVDNALQSGNSQESVTEQDSKDSTYSLSSTLTLSKADYEKHKVYACEVTHQGLSSPVTKSFNRGECDKTHTCPPCPAPPVAGPSVFLFPPKPKDTLMISRTPEVTCVVVDVSHEDPEVKFNWYVDGVEVHNAKTKPREEQYNSTYRVVSVLTVLHQDWLNGKEYKCKVSNKGLPSSIEKTISKAKGQPREPQVCTLPPSRDELTKNQVSLSCAVKGFYPSDIAVEWESNGQPENNYKTTPPVLDSDGSFFLVSKLTVDKSRWQQGNVFSCSVMHEALHNHYTQKSLSLSPGKGGSGGSGGGGSGGGGSDIQMTQSPSSLSASVGDRVTITCQASQDISNYLNWYQQKPGKAPKLLIYDASNLETGVPSRFSGSGSGTDFTFTISSLQPEDIATYFCQHFDHLPLAFGGGTKVEIK
notes: (ProA)/(CH1) = purification resin; also called IgFD-29(ProA); IgFD-29(CH1)
In the case of B2, the “Promotion for the specific killing effect of PBMCs on target cells by heterodimers (EC50, pM); F98-EGFR cells, LDH assay; IgFD-29(CH1)” value with EGFR on F98-EGFR cells [1] amounted to 338 pM. Moreover, the “Promotion for the specific killing effect of PBMCs on target cells by heterodimers (EC50, pM); F98-EGFR cells, LDH assay; IgFD-29(ProA)” value with EGFR on F98-EGFR cells [1] amounted to 293 pM. The Kd in assay [2] came to 6.82 nM; with EGFR on F98-EGFR cells [3], 77.5 nM; with EGFR on F98-EGFR cells [4] it was 78 nM; in assay [5], 7.42 nM.

B3: IgFD-32(anti-CD3/EGFR) (bispecific antibody, human IgG1, kappa, lambda)
chain 1: EVQLVESGGGLVQPGGSLRLSCAASGFTFNTYAMNWVRQAPGKGLEWVARIRSKYNNYATYYADSVKDRFTISRDDSKNTLYLQMNSLRAEDTAVYYCVRHGNFGNSYVSWFAYWGQGTLVTVSSASTKGPQVQLQESGPGLVKPSETLSLTCTVSGGSVSSGDYYWTWIRQSPGKGLEWIGHIYYSGNTNYNPSLKSRLTISIDTSKTQFSLKLSSVTAADTAIYYCVRDRVTGAFDIWGQGTMVTVSSASTKGPSVFPLAPSSKSTSGGTAALGCLVKDYFPEPVTVSWNSGALTSGVHTFPAVLQSSGLYSLSSVVTVPSSSLGTQTYICNVNHKPSNTKVDKKVEPKSCDKTHTCPPCPAPPVAGPSVFLFPPKPKDTLMISRTPEVTCVVVDVSHEDPEVKFNWYVDGVEVHNAKTKPREEQYNSTYRVVSVLTVLHQDWLNGKEYKCKVSNKGLPSSIEKTISKAKGQPREPQVYTLPPCRDELTKNQVSLWCLVKGFYPSDIAVEWESNGQPENNYKTTPPVLDSDGSFFLYSKLTVDKSRWQQGNVFSCSVMHEALHNHYTQKSLSLSPGK
chain 2: not shown
notes: (ProA)/(CH1) = purification resin; also called IgFD-32(ProA); IgFD-32(CH1)
On to B3, for which the Kd stood at 8.45 nM in assay [2], 19.6 nM with EGFR on F98-EGFR cells [3], 12.8 nM with EGFR on F98-EGFR cells [4] and 7.13 nM in assay [5].

B4: IgFD-33(anti-CD3/EGFR) (bispecific antibody, human IgG1, kappa)
chain 1: QVQLQESGPGLVKPSETLSLTCTVSGGSVSSGDYYWTWIRQSPGKGLEWIGHIYYSGNTNYNPSLKSRLTISIDTSKTQFSLKLSSVTAADTAIYYCVRDRVTGAFDIWGQGTMVTVSSASTKGPEVQLVESGGGLVQPGGSLRLSCAASGFTFNTYAMNWVRQAPGKGLEWVARIRSKYNNYATYYADSVKDRFTISRDDSKNTLYLQMNSLRAEDTAVYYCVRHGNFGNSYVSWFAYWGQGTLVTVSSASTKGPSVFPLAPSSKSTSGGTAALGCLVKDYFPEPVTVSWNSGALTSGVHTFPAVLQSSGLYSLSSVVTVPSSSLGTQTYICNVNHKPSNTKVDKKVEPKSCDKTHTCPPCPAPPVAGPSVFLFPPKPKDTLMISRTPEVTCVVVDVSHEDPEVKFNWYVDGVEVHNAKTKPREEQYNSTYRVVSVLTVLHQDWLNGKEYKCKVSNKGLPSSIEKTISKAKGQPREPQVYTLPPCRDELTKNQVSLWCLVKGFYPSDIAVEWESNGQPENNYKTTPPVLDSDGSFFLYSKLTVDKSRWQQGNVFSCSVMHEALHNHYTQKSLSLSPGK
chain 2: DIQMTQSPSSLSASVGDRVTITCQASQDISNYLNWYQQKPGKAPKLLIYDASNLETGVPSRFSGSGSGTDFTFTISSLQPEDIATYFCQHFDHLPLAFGGGTKVEIKTVAAPSVFIFPPQAVVTQEPSLTVSPGGTVTLTCRSSTGAVTTSNYANWVQQKPDHLFRGLIGGTNKRAPGTPARFSGSLLGDKAALTISGAQPEDEAEYYCALWYSNLWVFGGGTKLTVLKRTVAAPSVFIFPPSDEQLKSGTASVVCLLNNFYPREAKVQWKVDNALQSGNSQESVTEQDSKDSTYSLSSTLTLSKADYEKHKVYACEVTHQGLSSPVTKSFNRGECDKTHTCPPCPAPPVAGPSVFLFPPKPKDTLMISRTPEVTCVVVDVSHEDPEVKFNWYVDGVEVHNAKTKPREEQYNSTYRVVSVLTVLHQDWLNGKEYKCKVSNKGLPSSIEKTISKAKGQPREPQVCTLPPSRDELTKNQVSLSCAVKGFYPSDIAVEWESNGQPENNYKTTPPVLDSDGSFFLVSKLTVDKSRWQQGNVFSCSVMHEALHNHYTQKSLSLSPGK
notes: also called IgFD-33 (ProA)
Consider B4, for which the values for the Kd (in the assay with EGFR on F98-EGFR cells [6]; in assay [5]) were 2.42 nM and 50.7 nM, respectively.
